Experimental data reported in the supplement of paper PMC10065799, “High-throughput profiling of sequence recognition by tyrosine kinases and SH2 domains using bacterial peptide display” (eLife, 2023).

Columns and labels:
SHP2-C SH2 = experiment: SH2 binding enrichment of the phosphorylated peptide, bacterial display (enrichment ratio); higher = better substrate or ligand; peptides without Tyr show the background
Grb2 SH2 = Grb2 SH2 (UniProt P62993); experiment: as above
c-Src SH2 = experiment: as above
EPHB2 = EPHB2 (UniProt P29323); experiment: phosphorylation enrichment, bacterial display (enrichment ratio); higher = better substrate or ligand; peptides without Tyr show the background
EPHB2, sequence (P29323 whole entry, looked up): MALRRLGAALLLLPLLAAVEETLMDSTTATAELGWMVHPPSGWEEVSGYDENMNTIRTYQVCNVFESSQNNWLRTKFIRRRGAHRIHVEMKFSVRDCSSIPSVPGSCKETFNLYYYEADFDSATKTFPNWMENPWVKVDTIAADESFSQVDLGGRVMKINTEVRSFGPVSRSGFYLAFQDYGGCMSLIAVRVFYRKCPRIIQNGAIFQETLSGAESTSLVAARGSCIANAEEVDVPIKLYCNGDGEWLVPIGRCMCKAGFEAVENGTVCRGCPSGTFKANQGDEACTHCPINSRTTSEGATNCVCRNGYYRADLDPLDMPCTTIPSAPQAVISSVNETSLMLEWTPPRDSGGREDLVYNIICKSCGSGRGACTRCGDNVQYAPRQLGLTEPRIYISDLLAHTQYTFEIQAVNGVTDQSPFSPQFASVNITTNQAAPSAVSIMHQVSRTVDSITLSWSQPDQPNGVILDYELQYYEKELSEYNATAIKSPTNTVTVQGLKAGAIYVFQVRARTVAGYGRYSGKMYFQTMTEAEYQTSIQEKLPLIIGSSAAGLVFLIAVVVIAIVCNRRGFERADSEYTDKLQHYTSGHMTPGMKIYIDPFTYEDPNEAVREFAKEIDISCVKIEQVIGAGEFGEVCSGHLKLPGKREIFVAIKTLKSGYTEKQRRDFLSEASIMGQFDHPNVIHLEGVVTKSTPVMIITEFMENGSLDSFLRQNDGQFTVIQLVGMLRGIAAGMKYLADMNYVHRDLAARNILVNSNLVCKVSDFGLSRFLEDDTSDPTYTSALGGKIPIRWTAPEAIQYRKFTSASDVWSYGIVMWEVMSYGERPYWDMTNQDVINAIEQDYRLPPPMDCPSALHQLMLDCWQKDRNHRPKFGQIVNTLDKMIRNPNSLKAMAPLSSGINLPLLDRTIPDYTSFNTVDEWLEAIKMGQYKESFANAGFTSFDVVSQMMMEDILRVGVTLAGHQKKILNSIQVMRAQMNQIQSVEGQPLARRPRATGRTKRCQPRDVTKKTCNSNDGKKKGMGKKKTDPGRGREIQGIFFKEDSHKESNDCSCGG

AncSZ = experiment: as above
Fyn = Fyn (UniProt P06241); experiment: as above
Hck = Hck (UniProt P08631); experiment: as above
c-Abl (mouse) = experiment: as above
Fer (mouse) = experiment: as above
MERTK = MERTK (UniProt Q12866); experiment: as above
MERTK, sequence (Q12866 whole entry, looked up): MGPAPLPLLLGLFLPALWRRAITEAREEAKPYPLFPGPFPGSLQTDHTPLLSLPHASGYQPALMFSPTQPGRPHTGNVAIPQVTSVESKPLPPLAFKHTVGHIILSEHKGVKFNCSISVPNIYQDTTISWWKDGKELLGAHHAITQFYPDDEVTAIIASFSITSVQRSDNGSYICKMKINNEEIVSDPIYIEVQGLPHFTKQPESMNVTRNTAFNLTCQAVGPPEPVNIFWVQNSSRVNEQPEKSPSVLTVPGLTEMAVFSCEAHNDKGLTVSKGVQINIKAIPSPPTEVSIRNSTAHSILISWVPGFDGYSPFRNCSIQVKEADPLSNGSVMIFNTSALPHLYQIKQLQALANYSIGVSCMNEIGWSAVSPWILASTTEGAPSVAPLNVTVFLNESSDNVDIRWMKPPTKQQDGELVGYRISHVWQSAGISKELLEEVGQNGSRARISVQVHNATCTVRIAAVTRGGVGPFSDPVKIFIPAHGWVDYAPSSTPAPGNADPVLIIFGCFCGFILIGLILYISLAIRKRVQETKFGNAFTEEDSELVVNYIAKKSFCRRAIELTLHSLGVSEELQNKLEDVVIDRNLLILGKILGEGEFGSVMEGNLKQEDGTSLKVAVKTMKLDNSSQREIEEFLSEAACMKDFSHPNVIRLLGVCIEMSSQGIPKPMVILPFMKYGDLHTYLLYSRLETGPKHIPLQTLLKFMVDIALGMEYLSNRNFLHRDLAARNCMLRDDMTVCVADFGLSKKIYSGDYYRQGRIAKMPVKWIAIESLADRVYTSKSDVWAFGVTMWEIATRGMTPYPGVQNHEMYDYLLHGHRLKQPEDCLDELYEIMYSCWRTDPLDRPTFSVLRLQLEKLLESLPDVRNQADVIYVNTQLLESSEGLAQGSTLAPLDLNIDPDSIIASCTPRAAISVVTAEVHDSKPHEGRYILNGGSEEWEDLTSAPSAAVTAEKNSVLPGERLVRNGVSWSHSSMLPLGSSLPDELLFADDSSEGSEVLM

FGFR1 = FGFR1 (UniProt P11362); experiment: as above
FGFR1, sequence (P11362 whole entry, looked up): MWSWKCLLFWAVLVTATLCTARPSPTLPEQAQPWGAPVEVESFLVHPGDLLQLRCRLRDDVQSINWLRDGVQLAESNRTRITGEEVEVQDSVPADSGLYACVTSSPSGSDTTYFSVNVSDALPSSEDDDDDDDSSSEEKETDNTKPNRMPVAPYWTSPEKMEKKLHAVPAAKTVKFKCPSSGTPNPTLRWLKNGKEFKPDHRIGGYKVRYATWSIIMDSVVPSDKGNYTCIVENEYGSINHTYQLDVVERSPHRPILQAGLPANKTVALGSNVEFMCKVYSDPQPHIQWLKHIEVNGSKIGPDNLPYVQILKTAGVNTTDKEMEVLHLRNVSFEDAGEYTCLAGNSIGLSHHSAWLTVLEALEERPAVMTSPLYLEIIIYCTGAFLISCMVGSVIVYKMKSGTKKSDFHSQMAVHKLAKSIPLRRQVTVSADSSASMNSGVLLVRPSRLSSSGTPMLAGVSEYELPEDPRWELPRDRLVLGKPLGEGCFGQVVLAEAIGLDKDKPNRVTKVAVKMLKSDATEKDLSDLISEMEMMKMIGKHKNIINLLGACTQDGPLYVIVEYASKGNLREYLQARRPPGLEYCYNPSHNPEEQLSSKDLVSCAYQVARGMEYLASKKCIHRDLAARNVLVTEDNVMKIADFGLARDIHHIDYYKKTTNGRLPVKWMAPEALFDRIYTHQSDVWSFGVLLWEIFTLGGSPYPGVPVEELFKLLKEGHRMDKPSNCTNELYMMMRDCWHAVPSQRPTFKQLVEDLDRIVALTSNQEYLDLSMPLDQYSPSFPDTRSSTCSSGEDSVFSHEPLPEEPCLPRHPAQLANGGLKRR

EPHB1 = EPHB1 (UniProt P54762); experiment: as above
FGFR3 = FGFR3 (UniProt P22607); experiment: as above
FGFR3, sequence (P22607 whole entry, looked up): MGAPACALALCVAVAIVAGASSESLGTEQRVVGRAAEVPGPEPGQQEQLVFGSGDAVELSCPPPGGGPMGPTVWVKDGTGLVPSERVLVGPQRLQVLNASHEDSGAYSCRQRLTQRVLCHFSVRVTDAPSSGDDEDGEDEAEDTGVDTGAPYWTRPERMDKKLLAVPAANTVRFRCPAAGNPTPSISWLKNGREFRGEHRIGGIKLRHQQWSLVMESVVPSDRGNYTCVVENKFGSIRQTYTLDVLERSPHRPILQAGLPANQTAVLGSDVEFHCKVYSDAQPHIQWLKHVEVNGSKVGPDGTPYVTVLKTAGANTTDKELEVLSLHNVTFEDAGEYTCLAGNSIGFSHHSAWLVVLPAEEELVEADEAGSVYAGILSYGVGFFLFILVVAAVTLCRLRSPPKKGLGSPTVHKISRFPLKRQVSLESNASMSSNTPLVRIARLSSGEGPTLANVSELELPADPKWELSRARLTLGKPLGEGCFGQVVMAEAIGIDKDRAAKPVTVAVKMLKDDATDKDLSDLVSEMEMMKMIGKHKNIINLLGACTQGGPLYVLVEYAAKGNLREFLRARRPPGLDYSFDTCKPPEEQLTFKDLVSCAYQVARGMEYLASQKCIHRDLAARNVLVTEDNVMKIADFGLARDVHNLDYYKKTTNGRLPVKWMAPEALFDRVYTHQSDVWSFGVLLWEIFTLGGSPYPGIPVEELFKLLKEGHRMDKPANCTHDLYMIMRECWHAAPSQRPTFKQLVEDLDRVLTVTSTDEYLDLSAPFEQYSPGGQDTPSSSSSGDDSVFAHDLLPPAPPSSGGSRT

Jak2 = Jak2 (UniProt O60674); experiment: as above
Jak2, sequence (O60674 whole entry, looked up): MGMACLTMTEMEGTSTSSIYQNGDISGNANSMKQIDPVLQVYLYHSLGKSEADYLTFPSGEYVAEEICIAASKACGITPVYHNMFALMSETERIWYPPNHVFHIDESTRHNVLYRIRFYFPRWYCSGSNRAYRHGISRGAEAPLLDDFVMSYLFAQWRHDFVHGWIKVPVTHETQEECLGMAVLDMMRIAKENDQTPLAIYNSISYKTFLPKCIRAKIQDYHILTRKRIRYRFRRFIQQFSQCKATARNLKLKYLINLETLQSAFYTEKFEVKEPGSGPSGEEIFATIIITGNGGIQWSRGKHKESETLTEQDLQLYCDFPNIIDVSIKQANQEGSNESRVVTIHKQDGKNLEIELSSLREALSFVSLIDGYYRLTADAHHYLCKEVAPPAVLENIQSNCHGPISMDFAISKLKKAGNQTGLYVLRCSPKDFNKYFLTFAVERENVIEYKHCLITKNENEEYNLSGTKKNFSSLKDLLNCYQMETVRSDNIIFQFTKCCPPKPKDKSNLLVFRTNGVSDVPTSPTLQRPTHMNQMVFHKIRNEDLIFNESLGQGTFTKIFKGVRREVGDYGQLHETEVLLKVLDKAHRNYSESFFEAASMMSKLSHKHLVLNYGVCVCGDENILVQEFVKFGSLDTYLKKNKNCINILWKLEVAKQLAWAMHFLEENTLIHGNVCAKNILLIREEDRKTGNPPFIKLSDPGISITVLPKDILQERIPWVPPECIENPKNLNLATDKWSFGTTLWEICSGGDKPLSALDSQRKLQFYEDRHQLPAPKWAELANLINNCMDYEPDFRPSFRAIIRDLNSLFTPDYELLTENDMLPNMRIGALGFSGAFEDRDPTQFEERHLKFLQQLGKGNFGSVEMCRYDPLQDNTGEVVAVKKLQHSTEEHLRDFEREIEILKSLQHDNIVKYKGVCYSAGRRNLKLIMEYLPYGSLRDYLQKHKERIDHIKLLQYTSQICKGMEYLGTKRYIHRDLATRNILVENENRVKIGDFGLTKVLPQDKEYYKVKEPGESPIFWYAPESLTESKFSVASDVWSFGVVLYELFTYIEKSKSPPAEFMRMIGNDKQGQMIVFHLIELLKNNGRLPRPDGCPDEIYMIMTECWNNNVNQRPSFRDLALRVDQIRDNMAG

c-Src = experiment: as above
Fes = Fes (UniProt P07332); experiment: as above
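Throughout, for SH2 binding enrichment of the phosphorylated peptide, bacterial display: peptide library displayed on the E. coli surface as eCPX fusions, selected cells deep-sequenced, score is each peptide's frequency after selection divided by its frequency in the input.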
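Throughout, for phosphorylation enrichment, bacterial display: 11-residue human phosphosite peptides and single-mutation variants displayed on the E. coli surface, counted by deep sequencing, each peptide's frequency after selection divided by its frequency in the unselected input library; frequency after pTyr selection over input frequency; kinase dosed for 20-30% of maximal phosphorylation in three min.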

Grb2 SH2, sequence (P62993 whole entry, looked up): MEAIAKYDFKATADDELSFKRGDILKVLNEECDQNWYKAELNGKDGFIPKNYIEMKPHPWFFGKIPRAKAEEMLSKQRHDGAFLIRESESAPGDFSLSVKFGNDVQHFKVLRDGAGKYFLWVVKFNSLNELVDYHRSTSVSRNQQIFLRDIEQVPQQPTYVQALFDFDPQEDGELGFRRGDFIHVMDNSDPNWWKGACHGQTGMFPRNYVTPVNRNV

Sequence	SH2 binding enrichment (SHP2-C SH2)	SH2 binding enrichment (Grb2 SH2)	SH2 binding enrichment (c-Src SH2)	phosphorylation enrichment (EPHB2)	phosphorylation enrichment (AncSZ)	phosphorylation enrichment (Fyn)	phosphorylation enrichment (Hck)	phosphorylation enrichment (c-Abl (mouse))	phosphorylation enrichment (Fer (mouse))	phosphorylation enrichment (MERTK)	phosphorylation enrichment (FGFR1)	phosphorylation enrichment (EPHB1)	phosphorylation enrichment (FGFR3)	phosphorylation enrichment (Jak2)	phosphorylation enrichment (c-Src)	phosphorylation enrichment (Fes)
RTTIHYNFMCN [TP53_Y234_C229R_YF]	0.657	0.884	0.624	0.808	1.33	0.527	0.54	2.01	0.668	0.609	0.648	0.908	1.11	1.29	0.514	1.46
STKPQYQPGEN [SRC_Y530_E527K]	1.09	0.833	0.417	0.36	0.575	0.363	0.361	0.519	0.311	0.395	0.389	0.363	0.412	0.63	0.396	0.579
IYQASYYRRGD [LTK_Y676_R673Q]	0.742	0.628	0.412	0.66	0.822	7.6	10.6	11.5	1.43	6.37	0.479	0.659	0.473	0.528	6.2	0.695
EFITRYIASLK [PSMA7_Y110_YF]	0.72	1.32	0.873	0.506	0.84	0.495	0.436	0.648	0.454	0.475	0.419	0.585	0.536	0.695	0.435	0.806
SHSMRYFDTAV [HLA-C_Y31]	0.467	0.716	0.51	0.329	0.57	0.416	0.424	0.436	0.384	0.497	0.471	0.42	0.521	0.492	0.367	0.586
FSGQVYRQRRK [TH_Y230_D227G]	0.472	0.675	0.244	0.772	0.855	0.774	0.718	0.789	0.582	1	0.546	0.604	0.64	0.769	1.13	0.697
SSNPEYLSASD [INSR_Y999]	0.642	0.977	0.557	0.594	1.12	0.531	0.462	0.719	0.491	0.476	0.498	0.514	0.695	0.961	0.458	1
KRYRIYHLAIS [BRCA2_Y3009_T3013I]	1.03	1.13	1.51	0.358	0.535	0.343	0.446	0.449	0.406	0.62	0.599	0.37	0.464	0.604	0.459	0.68
